Data published in US9539306B2, “Anti-tumor drug, medicament, composition, and use thereof” (GENE SIGNAL INTERNATIONAL SA, priority 2007, dated 2017).

What was measured:
[1] = tested on: CALU-6 cells (human lung carcinoma); test: Human non-small cell lung cancer (CALU-6) xenograft model, tumor growth; assay type: in vivo, Swiss Nude mice; set-up: Growth inhibition based on T/C ratio, T/C ratio (%): concentration or dose not given beside the values; details: for MTV (mean tumor volume): IP Q2DX8, 168A-T2 15 mg/kg, CDDP 5 mg/kg; for MRTV (mean relative tumor volume): ratio of MTV at time t to volume at D12; for Growth inhibition based on T/C ratio, T/C ratio (%): versus vehicle group 1
Method: CALU-6 cells were cultured as adherent cells in complete EMEM medium (Ref. CM1MEM18-01, batch No. 462502, Eurobio, France) 10% fetal calf serum (FCS; Ref. CVFSVF00-01, batch No. S13021, Eurobio, France) under a 37° C., 5% CO2 humidified atmosphere. They were amplified in 75 cm^2-flasks to reach 90×10^6 cells.
At D0, CALU-6 cells (human lung carcinoma) were collected from 75 cm^2-flasks by removing the medium and adding 3 ml of trypsine-EDTA (Ref. CEZTDA00-0U, batch No. 633920, Eurobio, France). After 5 min of incubation at 37° C., cells had detached from the plastic and the enzymatic reaction was stopped by adding 3 ml of EMEM medium containing 10% fetal calf serum. Cells were then centrifuged at 700 g for 5 min at room temperature. They were resuspended in serum-free EMEM culture medium. Cells were counted and viability assessment by Trypan Blue exclusion (Ref. CSTCOL03-0U, batch No. 434511, Eurobio, France). The number of viable CALU-6 cells was >99%. The number of cells was then adjusted to 25×10^6 cells/ml in serum-free medium.
Thirty healthy female Swiss Nude mice were anesthetized by IP injection of Ketamine-Xylazine (80 mg/kg-12 mg/kg; Ref. K-113, Sigma, France). CALU-6 cells 5×10^6 cells/mouse in 200 μl of serum-free medium) were then implanted subcutaneously in the right flank of each mouse.
At D12 post-implantation of the CALU-6 cells, the thirty mice were randomized into […]. Tumor volumes had reached 54 to 296 mm^3 and mean tumor volumes were not statistically different between groups after randomization.
Injections in groups 1, 2, 3 and 4 were performed according to the schedules Q2DX8, i.e. 1 quantity every two days, eight times.
Ketamine/Xylazine (80 mg/kg-12 mg/kg; Ref. K-113, Sigma, France) was used to anaesthetize the animals before sacrifice by cervical dislocation. For all animals, the tumor size was measured twice a week with calipers. The tumor volume (mm^3) was measured according to the formula: (length×width^2)/2.
• Tumor growth curves were drawn using the mean tumor volumes (MTV), • Mean Relative tumor volume (MRTV) was calculated as the ratio between the MTV at time t and the volume at the time of injection (t=D12), • Tumor growth inhibition (T/C, %) was evaluated as the ratio of the median tumor volumes of treated groups versus vehicle group.
Statistical analyses of tumor volumes (TV), time to reach ‘TV’, tumor-doubling time (DT), relative tumor volume (RTV) and tumor growth inhibition (T/C) were performed for all groups. Data are expressed as mean±SD. Groups of data were normally distributed. Univariate analysis were performed to assess differences between groups. Statistical significance was then determined using the Student's t test. A P<0.05 was considered as statistically significant. The Statistical analysis was performed using XLSTAT (Addinsoft, France).

HUVEC [2] = test: In vitro angiogenesis of HUVEC induced by FGF2 and VEGF on Matrigel; assay type: cell-based, human; details: 3.5, 6.9, 13.6 μg/mL (0.2, 0.4, 0.8 μM)
Method: The purified proteins 168A-T2 was tested in vitro on angiogenesis of HUVEC induced by FGF2 and VEGF on Matrigel.
24 wells plates were prepared with 250 μL of BD Matrigel™/well and then incubated 30 minutes in incubator. HUVEC cells were then prepared as described in example 2 and 70 000 cells (in 0.5 mL) were seeded per well and incubated with different concentrations of the purified protein 168A-T2, in Tris-HCl 20 mM buffer (pH 8), containing 150 mM NaCl and urea 2M; this buffer was used as control: • FIG. 2a: Control (Buffer Urea 2M) • FIG. 2b: 168A-T2 3.5 μg/mL (0.2 μM) • FIG. 2c: 168A-T2 6.9 μg/mL (0.4 μM) • FIG. 2d: 168A-T2 13.6 μg/mL (0.8 μM)

[3] = tested on: kidney cancer line (BizX); test: Inhibition of kidney cancer cell line proliferation in vitro (MTT); assay type: cell-based; details: 48 hours, maximum over tested concentrations
Method: (§1) BizX cell preparation of 50000 cells/mL was prepared in complete medium. In a 96 wells plate, […] of the cell preparation was distributed in each well and then incubated with different concentrations of 168A-T2 (each concentration was tested in triplicate). After 48 hours of incubation at 37° C., […] of MTT ([…] in water) were added in each well. After 3 hours of incubation at 37° C., the culture medium was eliminated and […] of DMSO were added to solubilize MMT crystals. The optical density (OD) at 570 nm was then measured using μQuant micro-plate reader (Bio-Tek Instrument gmbh, Colmar, France) coupled to the KC4 (Bio-Tek) software. The OD was corrected by subtracting blank-well OD values (the OD values obtained from wells without cells), and the inhibition of cell proliferation was measured relative to control (OD obtained from wells with untreated kidney tumor cells representing the maximal proliferative response, i.e. 100%).

HUVEC [4] = test: Migration of human endothelial cells (wound assay); assay type: cell-based; details: 12, 17, 23 μg/mL (0.7, 1, 1.35 μM); 18 hours
Method: Cell migration was tested by the wound assay described by Sato and Rifkin (J Cell Biol. 1988; 107:1199) with few modifications. HUVEC grown in growth medium EGM-2MV (Cambrex) were seeded in 24-well plates at 80 000 cells per well in 500 μL of growth medium and grown to confluence at 37° C. in a humidified atmosphere containing 5% CO2. Cells were scrapped with a plastic tip on one line only. After wounding, the culture medium was changed for fresh medium (control, FIG. 3a) or fresh medium supplemented with: • FIG. 3b: 168A-T2 12 μg/mL (0.7 μM) • FIG. 3c: 168A-T2 17 μg/mL (1 μM) • FIG. 3d: […] 23 μg/mL (1.35 μM)
After 18 hours of culture, cells were observed and photographed under the inverted microscope (Analysis, Olympus, Rungis, France).

lung cancer line (Calu6) = test: Inhibition of lung cancer cell line proliferation in vitro (MTT); assay type: cell-based, human; details: 48 hours, maximum over tested concentrations
Method: as §1
Calu6 cells were cultured and treated as described in example 5.

HUVEC cells = test: Inhibition of endothelial cell proliferation in vitro (MTT); assay type: cell-based, human; details: comparison with literature (Binetruy-Tournaire et al.)
Method: HUVEC cells were cultured to confluency in complete EGM2-MV medium (Cambrex) at 37° C. and in 5% CO2 humidified atmosphere. Cells were then collected by trypsine-EDTA digestion (Versene, Eurobio). After 5 min, the enzymatic reaction was stopped by adding 3 ml of the culture medium containing 5% FCS. Cells were then centrifuged at 220 g for 10 min at room temperature, washed twice with 5 ml of culture medium, suspended in complete culture medium, counted and adjusted to 50 000 cells/ml. One hundred μL per well were then distributed to a 96-well cell culture grade micro-plate (5 000 cells/well) and incubated with different concentrations of the purified protein 168A-T2 in Tris-HCl 20 mM buffer (pH 8), containing 150 mM NaCl and urea 2M; this buffer was used as control.
After 42 hrs at 37° C., cell proliferation was measured using thiazolyl blue tetrazolium bromide (MTT) method. Briefly, MTT (Sigma) was dissolved in PBS at 5 mg/ml, the solution was filtered (0.22 μm) and 10 μl were added to each well of the 96-well micro-plates. […] The optical density (OD) at 570 nm was then measured using μQuant micro-plate reader (Bio-Tek Instrument gmbh, Colmar, France) coupled to the KC4 (Bio-Tek) software. […]

## N.N.[Cl][Pt][Cl] [Cisplatin, cis-diamineplatinum(II) dichloride, reference compound]
[1]; D12 (start of treatment)
  MTV (mean tumor volume): 142.60 mm^3
[1]; D14
  MTV (mean tumor volume): 351.15 mm^3
[1]; D16
  MTV (mean tumor volume): 291.29 mm^3
[1]; D18
  MTV (mean tumor volume): 329.18 mm^3
[1]; D20
  MTV (mean tumor volume): 386.84 mm^3
[1]; D22
  MTV (mean tumor volume): 470.59 mm^3
[1]; D24
  MTV (mean tumor volume): 595.00 mm^3
[1]; D26
  MTV (mean tumor volume): 527.98 mm^3
[1]; D28
  MTV (mean tumor volume): 742.44 mm^3

B1: 168A-T2: fragment of the extracellular domain of protein 168A, SEQ ID NO:4 (108 amino acids), recombinant from E. coli, 18 kD (protein, listed as Homo sapiens)
chain: MAFDVSWFAVHSFGLDKAPVLLSSLDRKGIVTTSRRDWKSDLSLERVSVLEFLLQVHGSEDQDFGNYYCSVTPWVKSPTGSWQKEAEIHSKPVFITVKMDVLNAFKYP
HUVEC [2]
  inhibition of in vitro angiogenesis (capillary tube formation): inhibited in vitro angiogenesis in a dose-dependent manner
[3]
  inhibition of proliferation of kidney cancer line (BizX): up to 20%
HUVEC [4]
  inhibition of human endothelial cell migration: inhibited human endothelial cells migration in a dose dependent manner
[1]; D12 (reference time)
  MRTV (mean relative tumor volume): 1
[1]; D12 (start of treatment)
  MTV (mean tumor volume): 159.22 mm^3
[1]; D14
  MTV (mean tumor volume): 181.94 mm^3
  MRTV (mean relative tumor volume): 1.15
  Growth inhibition based on T/C ratio, T/C ratio (%): 37%
[1]; D16
  MTV (mean tumor volume): 264.20 mm^3
  MRTV (mean relative tumor volume): 1.93
  Growth inhibition based on T/C ratio, T/C ratio (%): 39%
[1]; D18
  MTV (mean tumor volume): 322.99 mm^3
  MRTV (mean relative tumor volume): 2.08
  Growth inhibition based on T/C ratio, T/C ratio (%): 17%
[1]; D20
  MTV (mean tumor volume): 391.90 mm^3
  MRTV (mean relative tumor volume): 2.60
  Growth inhibition based on T/C ratio, T/C ratio (%): 29%
[1]; D22
  MTV (mean tumor volume): 485.42 mm^3
  MRTV (mean relative tumor volume): 3.47
  Growth inhibition based on T/C ratio, T/C ratio (%): 16%
[1]; D24
  MTV (mean tumor volume): 642.24 mm^3
  MRTV (mean relative tumor volume): 4.83
  Growth inhibition based on T/C ratio, T/C ratio (%): 15%
[1]; D26
  MTV (mean tumor volume): 529.95 mm^3
  MRTV (mean relative tumor volume): 4.14
  Growth inhibition based on T/C ratio, T/C ratio (%): 45%
[1]; D28
  MTV (mean tumor volume): 615.96 mm^3
  MRTV (mean relative tumor volume): 4.51
  Growth inhibition based on T/C ratio, T/C ratio (%): 45%
Lung cancer line (Calu6)
  inhibition of proliferation of lung cancer line (Calu6): up to 40%
HUVEC cells
  potency relative to anti-VEGF mAb and/or VEGF receptor (KDR)-based identified peptides: at least 600 fold
